According to US20210238260:

Key:
[1] = biological target: plasma purified human AT-III (antithrombin III); test: AT-III/UFH inhibition K0.5, ratio to Catalyst Biosciences WT FIXa
[2] = biological target: plasma purified human antithrombin III (AT-III), as complex with unfractionated heparin; test: ratio of K0.5 (lower limit) to Catalyst Biosciences WT FIXa, AT-III/UFH inhibition

B1: FIXa-Y155F/I251S/R318Y/R338E/R403E/E410N (protein)
chain 1: YNSGKLEEFVQGNLERECMEEKCSFEEAREVFENTERTTEFWKQYVDGDQCESNPCLNGGSCKDDINSYECWCPFGFEGKNCELDVTCNIKNGRCEQFCKNSADNKVVCSCTEGYRLAENQKSCEPAVPFPCGRVSVSQTSKLTR
chain 2: VVGGEDAKPGQFPWQVVLNGKVDAFCGGSIVNEKWIVTAAHCVETGVKITVVAGEHNIEETEHTEQKRNVSRIIPHHNYNAAINKYNHDIALLELDEPLVLNSYVTPICIADKEYTNIFLKFGSGYVSGWGRVFHKGYSALVLQYLRVPLVDRATCLESTKFTIYNNMFCAGFHEGGRDSCQGDSGGPHVTEVEGTSFLTGIISWGEECAMKGKYGIYTKVSEYVNWIKNKTKLT
[1]
  K0.5-mut/K0.5-wt: > 517
Factor X (FX), P00742
Sequence of Factor X (FX), P00742 (P00742 whole entry, looked up): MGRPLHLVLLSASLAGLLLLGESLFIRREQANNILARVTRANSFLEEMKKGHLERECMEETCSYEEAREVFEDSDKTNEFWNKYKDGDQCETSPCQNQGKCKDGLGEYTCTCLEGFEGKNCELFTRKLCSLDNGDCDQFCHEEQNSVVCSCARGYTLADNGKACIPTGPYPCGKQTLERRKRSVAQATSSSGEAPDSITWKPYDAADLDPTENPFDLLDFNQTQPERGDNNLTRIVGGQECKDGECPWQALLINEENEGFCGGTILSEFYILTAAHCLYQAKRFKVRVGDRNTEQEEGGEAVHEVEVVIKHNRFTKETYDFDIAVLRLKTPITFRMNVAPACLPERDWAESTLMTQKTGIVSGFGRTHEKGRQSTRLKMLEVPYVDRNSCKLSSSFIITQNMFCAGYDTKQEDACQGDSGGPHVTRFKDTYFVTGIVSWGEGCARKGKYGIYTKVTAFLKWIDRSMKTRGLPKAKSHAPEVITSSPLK
  % of WT kcat/KM: 363%
  kcat: 7.2 s⁻¹
  kcat/KM: 1.7e+08 M⁻¹ s⁻¹
Factor X, P00742
Sequence of Factor X, P00742 (P00742 whole entry, looked up): as above
  % of WT kcat/KM: 374%
  KM: 0.0433 µM
  kcat/KM: 1.7e+08 M⁻¹ s⁻¹
[2]
  K0.5-mut/K0.5-wt: 517

B2: FIXa-K228N/K247N/N249S/R318Y/R338E/R403E/E410N (protein)
chain 1: YNSGKLEEFVQGNLERECMEEKCSFEEAREVFENTERTTEFWKQYVDGDQCESNPCLNGGSCKDDINSYECWCPFGFEGKNCELDVTCNIKNGRCEQFCKNSADNKVVCSCTEGYRLAENQKSCEPAVPFPCGRVSVSQTSKLTR
chain 2: VVGGEDAKPGQFPWQVVLNGKVDAFCGGSIVNEKWIVTAAHCVETGVNITVVAGEHNIEETEHTEQNRSVIRIIPHHNYNAAINKYNHDIALLELDEPLVLNSYVTPICIADKEYTNIFLKFGSGYVSGWGRVFHKGYSALVLQYLRVPLVDRATCLESTKFTIYNNMFCAGFHEGGRDSCQGDSGGPHVTEVEGTSFLTGIISWGEECAMKGKYGIYTKVSEYVNWIKNKTKLT
[1]
  K0.5-mut/K0.5-wt: > 517
Factor X (FX), P00742
  KM: 0.0558 µM
  kcat of FX activation by FIXa (Xase complex with FVIIIa, PC/PS vesicles, Ca2+): 7.1 s⁻¹
Factor X, P00742
  % of WT kcat/KM: 258%
  kcat: 6.1 s⁻¹
  kcat/KM: 1.2e+08 M⁻¹ s⁻¹
[2]
  K0.5-mut/K0.5-wt: 517

B3: FIXa-D104N/K106S/N260S/R318Y/R338E/R403E/E410N (protein)
chain 1: YNSGKLEEFVQGNLERECMEEKCSFEEAREVFENTERTTEFWKQYVDGDQCESNPCLNGGSCKDDINSYECWCPFGFEGKNCELDVTCNIKNGRCEQFCKNSANNSVVCSCTEGYRLAENQKSCEPAVPFPCGRVSVSQTSKLTR
chain 2: VVGGEDAKPGQFPWQVVLNGKVDAFCGGSIVNEKWIVTAAHCVETGVKITVVAGEHNIEETEHTEQKRNVIRIIPHHNYSAAINKYNHDIALLELDEPLVLNSYVTPICIADKEYTNIFLKFGSGYVSGWGRVFHKGYSALVLQYLRVPLVDRATCLESTKFTIYNNMFCAGFHEGGRDSCQGDSGGPHVTEVEGTSFLTGIISWGEECAMKGKYGIYTKVSEYVNWIKNKTKLT
[1]
  K0.5-mut/K0.5-wt: > 517
Factor X (FX), P00742
  KM: 0.0611 µM
  kcat of FX activation by FIXa (Xase complex with FVIIIa, PC/PS vesicles, Ca2+): 5.4 s⁻¹
Factor X, P00742
  % of WT kcat/KM: 196%
  kcat: 5.4 s⁻¹
  kcat/KM: 8.8e+07 M⁻¹ s⁻¹
[2]
  K0.5-mut/K0.5-wt: 517

B4: FIXa-D104N/K106S/K247N/N249S/R318Y/R338E/R403E/E410N (protein)
chain 1: YNSGKLEEFVQGNLERECMEEKCSFEEAREVFENTERTTEFWKQYVDGDQCESNPCLNGGSCKDDINSYECWCPFGFEGKNCELDVTCNIKNGRCEQFCKNSANNSVVCSCTEGYRLAENQKSCEPAVPFPCGRVSVSQTSKLTR
chain 2: VVGGEDAKPGQFPWQVVLNGKVDAFCGGSIVNEKWIVTAAHCVETGVKITVVAGEHNIEETEHTEQNRSVIRIIPHHNYNAAINKYNHDIALLELDEPLVLNSYVTPICIADKEYTNIFLKFGSGYVSGWGRVFHKGYSALVLQYLRVPLVDRATCLESTKFTIYNNMFCAGFHEGGRDSCQGDSGGPHVTEVEGTSFLTGIISWGEECAMKGKYGIYTKVSEYVNWIKNKTKLT
[1]
  K0.5-mut/K0.5-wt: > 517
Factor X (FX), P00742
  % of WT kcat/KM: 192%
  kcat: 5.2 s⁻¹
  kcat/KM: 8.8e+07 M⁻¹ s⁻¹
Factor X, P00742
  % of WT kcat/KM: 197%
  KM: 0.059 µM
  kcat/KM: 8.8e+07 M⁻¹ s⁻¹
[2]
  K0.5-mut/K0.5-wt: 517

B5: FIXa-R318Y/R338E/R403E/E410N/T412A (protein)
chain 1: YNSGKLEEFVQGNLERECMEEKCSFEEAREVFENTERTTEFWKQYVDGDQCESNPCLNGGSCKDDINSYECWCPFGFEGKNCELDVTCNIKNGRCEQFCKNSADNKVVCSCTEGYRLAENQKSCEPAVPFPCGRVSVSQTSKLTR
chain 2: VVGGEDAKPGQFPWQVVLNGKVDAFCGGSIVNEKWIVTAAHCVETGVKITVVAGEHNIEETEHTEQKRNVIRIIPHHNYNAAINKYNHDIALLELDEPLVLNSYVTPICIADKEYTNIFLKFGSGYVSGWGRVFHKGYSALVLQYLRVPLVDRATCLESTKFTIYNNMFCAGFHEGGRDSCQGDSGGPHVTEVEGTSFLTGIISWGEECAMKGKYGIYTKVSEYVNWIKNKAKLT
[1]
  K0.5-mut/K0.5-wt: > 517
Factor X (FX), P00742
  KM: 0.0335 µM
  kcat of FX activation by FIXa (Xase complex with FVIIIa, PC/PS vesicles, Ca2+): 7.8 s⁻¹
Factor X, P00742
  % of WT kcat/KM: 577%
  kcat: 8.4 s⁻¹
  kcat/KM: 2.6e+08 M⁻¹ s⁻¹
[2]
  K0.5-mut/K0.5-wt: 517

B6: FIXa-R318Y/R338E/R403E/E410N/T412V (protein)
chain 1: YNSGKLEEFVQGNLERECMEEKCSFEEAREVFENTERTTEFWKQYVDGDQCESNPCLNGGSCKDDINSYECWCPFGFEGKNCELDVTCNIKNGRCEQFCKNSADNKVVCSCTEGYRLAENQKSCEPAVPFPCGRVSVSQTSKLTR
chain 2: VVGGEDAKPGQFPWQVVLNGKVDAFCGGSIVNEKWIVTAAHCVETGVKITVVAGEHNIEETEHTEQKRNVIRIIPHHNYNAAINKYNHDIALLELDEPLVLNSYVTPICIADKEYTNIFLKFGSGYVSGWGRVFHKGYSALVLQYLRVPLVDRATCLESTKFTIYNNMFCAGFHEGGRDSCQGDSGGPHVTEVEGTSFLTGIISWGEECAMKGKYGIYTKVSEYVNWIKNKVKLT
[1]
  K0.5-mut/K0.5-wt: > 517
Factor X (FX), P00742
  KM: 0.0443 µM
  kcat of FX activation by FIXa (Xase complex with FVIIIa, PC/PS vesicles, Ca2+): 7 s⁻¹
Factor X, P00742
  % of WT kcat/KM: 424%
  kcat: 7.9 s⁻¹
  kcat/KM: 1.9e+08 M⁻¹ s⁻¹
[2]
  K0.5-mut/K0.5-wt: 517

B7: FIXa-R318Y/R338E/E410N/T412V (protein)
chain 1: YNSGKLEEFVQGNLERECMEEKCSFEEAREVFENTERTTEFWKQYVDGDQCESNPCLNGGSCKDDINSYECWCPFGFEGKNCELDVTCNIKNGRCEQFCKNSADNKVVCSCTEGYRLAENQKSCEPAVPFPCGRVSVSQTSKLTR
chain 2: VVGGEDAKPGQFPWQVVLNGKVDAFCGGSIVNEKWIVTAAHCVETGVKITVVAGEHNIEETEHTEQKRNVIRIIPHHNYNAAINKYNHDIALLELDEPLVLNSYVTPICIADKEYTNIFLKFGSGYVSGWGRVFHKGYSALVLQYLRVPLVDRATCLESTKFTIYNNMFCAGFHEGGRDSCQGDSGGPHVTEVEGTSFLTGIISWGEECAMKGKYGIYTKVSRYVNWIKNKVKLT
[1]
  K0.5-mut/K0.5-wt: 252
Factor X (FX), P00742
  KM: 0.0297 µM
  kcat of FX activation by FIXa (Xase complex with FVIIIa, PC/PS vesicles, Ca2+): 5.2 s⁻¹
Factor X, P00742
  % of WT kcat/KM: 536%
  kcat: 6.3 s⁻¹
  kcat/KM: 2.4e+08 M⁻¹ s⁻¹
[2]
  K0.5-mut/K0.5-wt: 517

B8: FIXa-N260S/R318Y/R338E/R403E/E410N (protein)
chain 1: YNSGKLEEFVQGNLERECMEEKCSFEEAREVFENTERTTEFWKQYVDGDQCESNPCLNGGSCKDDINSYECWCPFGFEGKNCELDVTCNIKNGRCEQFCKNSADNKVVCSCTEGYRLAENQKSCEPAVPFPCGRVSVSQTSKLTR
chain 2: VVGGEDAKPGQFPWQVVLNGKVDAFCGGSIVNEKWIVTAAHCVETGVKITVVAGEHNIEETEHTEQKRNVIRIIPHHNYSAAINKYNHDIALLELDEPLVLNSYVTPICIADKEYTNIFLKFGSGYVSGWGRVFHKGYSALVLQYLRVPLVDRATCLESTKFTIYNNMFCAGFHEGGRDSCQGDSGGPHVTEVEGTSFLTGIISWGEECAMKGKYGIYTKVSEYVNWIKNKTKLT
[1]
  K0.5-mut/K0.5-wt: > 517
Factor X (FX), P00742
  KM: 0.0724 µM
  kcat of FX activation by FIXa (Xase complex with FVIIIa, PC/PS vesicles, Ca2+): 3.8 s⁻¹
Factor X, P00742
  % of WT kcat/KM: 117%
  kcat: 3.8 s⁻¹
  kcat/KM: 5.3e+07 M⁻¹ s⁻¹
[2]
  K0.5-mut/K0.5-wt: 517

B9: FIXa-R318Y/R338E/R403E/E410S (protein)
chain 1: YNSGKLEEFVQGNLERECMEEKCSFEEAREVFENTERTTEFWKQYVDGDQCESNPCLNGGSCKDDINSYECWCPFGFEGKNCELDVTCNIKNGRCEQFCKNSADNKVVCSCTEGYRLAENQKSCEPAVPFPCGRVSVSQTSKLTR
chain 2: VVGGEDAKPGQFPWQVVLNGKVDAFCGGSIVNEKWIVTAAHCVETGVKITVVAGEHNIEETEHTEQKRNVIRIIPHHNYNAAINKYNHDIALLELDEPLVLNSYVTPICIADKEYTNIFLKFGSGYVSGWGRVFHKGYSALVLQYLRVPLVDRATCLESTKFTIYNNMFCAGFHEGGRDSCQGDSGGPHVTEVEGTSFLTGIISWGEECAMKGKYGIYTKVSEYVNWIKSKTKLT
[1]
  K0.5-mut/K0.5-wt: > 517
Factor X (FX), P00742
  % of WT kcat/KM: 458%
  kcat: 5.8 s⁻¹
  kcat of FX activation by FIXa (Xase complex with FVIIIa, PC/PS vesicles, Ca2+): 7.4 s⁻¹
  kcat/KM: 2.1e+08 M⁻¹ s⁻¹
Factor X, P00742
  % of WT kcat/KM: 401%
  KM: 0.0351 µM
  kcat/KM: 1.8e+08 M⁻¹ s⁻¹
[2]
  K0.5-mut/K0.5-wt: 517

B10: FIXa-Y155F/K247N/N249S/R318Y/R338E/R403E/E410N (protein)
chain 1: YNSGKLEEFVQGNLERECMEEKCSFEEAREVFENTERTTEFWKQYVDGDQCESNPCLNGGSCKDDINSYECWCPFGFEGKNCELDVTCNIKNGRCEQFCKNSADNKVVCSCTEGYRLAENQKSCEPAVPFPCGRVSVSQTSKLTR
chain 2: VVGGEDAKPGQFPWQVVLNGKVDAFCGGSIVNEKWIVTAAHCVETGVKITVVAGEHNIEETEHTEQNRSVIRIIPHHNYNAAINKYNHDIALLELDEPLVLNSYVTPICIADKEYTNIFLKFGSGYVSGWGRVFHKGYSALVLQYLRVPLVDRATCLESTKFTIYNNMFCAGFHEGGRDSCQGDSGGPHVTEVEGTSFLTGIISWGEECAMKGKYGIYTKVSEYVNWIKNKTKLT
[1]
  K0.5-mut/K0.5-wt: > 517
Factor X (FX), P00742
  % of WT kcat/KM: 405%
  kcat: 6.5 s⁻¹
  kcat/KM: 1.9e+08 M⁻¹ s⁻¹
Factor X, P00742
  % of WT kcat/KM: 408%
  KM: 0.0391 µM
  kcat/KM: 1.8e+08 M⁻¹ s⁻¹
[2]
  K0.5-mut/K0.5-wt: 517
